US20230303690A1 (published 2023)
Changes are numbered by the printed parent chain.

B1: sdAb No. 27-H1B3 (VHH)
VHH: QVQLVESGGGLVQPGGSLRLSCAASGFTLDYYAIGWFRQAPGKEREGVSCIRSSDASTYYADSVKGRFTISSDNSKNTVYLQMNSLRAEDTAVYYCATDRYSDCRGPYENWGQGTMVTVSS
notes: Humanized sdAb No. 27-H1; not shown: Fc part implied by anti-human IgG Fc detection
B2: sdAb No. 17-H1 (VHH)
VHH: QLQLVESGGGLVQPGGSLRLSCAASGLTLDAYAIGWFRQAPGKEREGLACISGSDGSTHYLDSVKGRFTISRDNGKNTMALQMNSLQFGDTAIYYCAARRGSCSGSWTYWGQGTQVTVSS
notes: Modified sdAb No. 17 (CDR1 DG to DA); not shown: Fc part implied by anti-human IgG1 Fc detection
B3: sdAb No. 17-H2 (VHH)
VHH: B2 VHH with D30E, A31G
notes: Modified sdAb No. 17 (CDR1 DG to EG); not shown: Fc part implied by anti-human IgG1 Fc detection
B4: sdAb No. 17-H3 (VHH)
VHH: B2 VHH with A31G, G56A
notes: Modified sdAb No. 17 (CDR2 DG to DA); not shown: Fc part implied by anti-human IgG1 Fc detection
B5: sdAb No. 17-H4 (VHH)
VHH: B2 VHH with A31G, D55E
notes: Modified sdAb No. 17 (CDR2 DG to EG); not shown: Fc part implied by anti-human IgG1 Fc detection
B6: sdAb No. 25-B7 (VHH)
VHH: QLQLVESGGGLVKPGGSLRLSCAASGSIESFSFMGWYRQAPGKQRELVAGFTGAASLSFSTYTDAVKGRFTISRDNAKNSVYLQMNSLRAEDTAVYFCNVDPWSQSWPGRYWGQGTTVTVSS
notes: Humanized sdAb No. 25; not shown: Fc part implied by anti-human IgG Fc detection
B7: combination of sdAbs 25 and 18 (other)
VHH 1: B6 VHH with K13Q, P14A, S80T, R89K, A90P, T117Q
VHH 2: QVQLVESGGGLVQPGGSLRLSCAASGFTLNEHAIGWFRRAPGKEREGVSCISSSDGSTYYHDSVKGRFNMSRDDAKNSVYLQMSSLKPEDTAIYYCAAALGRDCQGGQWKTSSWGQGTQVTVSS
B8: combination of sdAbs 25 and 27 (other)
VHH 1: B6 VHH with K13Q, P14A, S80T, R89K, A90P, T117Q
VHH 2: B1 VHH with A56G, S75T, R87K, A88P, M116Q
B9: combination of sdAbs 25 and 2015 (other)
VHH 1: B6 VHH with K13Q, P14A, S80T, R89K, A90P, T117Q
VHH 2: QLQLVESGGGLAQTGGSLRLSCAAAGFTFDDTATGWFRQAPGKNREGVACISSSDGRIHYIDSAKGRFTISKDNAKKTVYLQMDSLKPEDTAVYYCAAARKGSTDCQGAIWGSWGQGTQVIVSS

Legend:
[1] = target: T1, LAG3 Protein, Human, Recombinant (His Tag) (Sino Biological Catalog No. 16498-H08H) (human, UniProt P18627 23-450); assay: ELISA, coated hLAG3-His
T1 construct: Bought protein; also called hLAG3-His; LAG3-His; not shown: His tag
T1 sequence (looked up): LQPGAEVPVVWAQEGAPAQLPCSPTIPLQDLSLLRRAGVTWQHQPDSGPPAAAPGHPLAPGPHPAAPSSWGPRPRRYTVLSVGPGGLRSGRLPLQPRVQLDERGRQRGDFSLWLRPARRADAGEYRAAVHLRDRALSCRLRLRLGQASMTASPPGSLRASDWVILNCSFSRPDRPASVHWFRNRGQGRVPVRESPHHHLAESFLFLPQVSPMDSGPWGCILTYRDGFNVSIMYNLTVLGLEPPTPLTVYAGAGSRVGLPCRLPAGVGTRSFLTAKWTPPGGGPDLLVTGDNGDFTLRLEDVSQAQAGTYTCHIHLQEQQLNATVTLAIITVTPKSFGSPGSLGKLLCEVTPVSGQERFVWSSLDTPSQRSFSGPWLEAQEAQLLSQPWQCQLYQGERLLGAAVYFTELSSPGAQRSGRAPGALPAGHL
Procedure: Plates were coated with 100 µL per well of Coating Solution, and then covered, and incubated overnight (12-18 hours) at 2-8° C. The wells were aspirated and washed 1 time with >200 µL of Wash buffer per well, inverted and tapped on absorbent paper to remove excess liquid. The plates were blocked with 200 µL per well with Blocking buffer (1×PBS+4% milk) for 1 hour at room temperature, aspirated, inverted, and tapped on absorbent paper to remove excess liquid. Standards and sample dilutions were prepared in Blocking buffer. 100 µL of standards (in duplicate) and samples were pipetted into designated wells. After incubation for 1 hour at room temperature with gentle continual shaking (~500 rpm), the wells were aspirate and washed 3 times with >200 µL of Wash buffer per well, inverted and tapped on absorbent paper to remove excess liquid.
The primary antibody solution was diluted with Blocking buffer. See Table 14 for recommended primary antibody dilution. 100 µL of the primary antibody solution was added into each well and incubated for 2 hours at room temperature with gentle continual shaking (~500 rpm). The wells were aspirated and washed 3 times with >200 µL of Wash buffer per well, inverted and tapped on absorbent paper to remove excess liquid. The working solution of secondary antibody was made with Blocking buffer by diluting the secondary antibody by 2,500 times. 100 µL of secondary antibody working solution was added into each well and incubated for 30 minutes at room temperature. The wells were aspirated and washed 5 times with >200 µL of Wash buffer per well, inverted and tapped on absorbent paper to remove excess liquid. 100 µL of TMB substrate solution (Biopanda, TMB-S-004) was added to each well and incubated for 30 minutes at room temperature. 100 µL of Stop solution (Solarbio, C1058) was added to each well. Absorbance at 450 nm was measured within 30 minutes of adding Stop solution. Results were calculated using a log-log or 4-parameter curve fit.

[2] = target: T2, human LAG3 expressed on cells (human, UniProt P18627 23-525); assay: FACS, 293T-hLAG3 cells
T2 construct: whole, on cells
T2 sequence (looked up): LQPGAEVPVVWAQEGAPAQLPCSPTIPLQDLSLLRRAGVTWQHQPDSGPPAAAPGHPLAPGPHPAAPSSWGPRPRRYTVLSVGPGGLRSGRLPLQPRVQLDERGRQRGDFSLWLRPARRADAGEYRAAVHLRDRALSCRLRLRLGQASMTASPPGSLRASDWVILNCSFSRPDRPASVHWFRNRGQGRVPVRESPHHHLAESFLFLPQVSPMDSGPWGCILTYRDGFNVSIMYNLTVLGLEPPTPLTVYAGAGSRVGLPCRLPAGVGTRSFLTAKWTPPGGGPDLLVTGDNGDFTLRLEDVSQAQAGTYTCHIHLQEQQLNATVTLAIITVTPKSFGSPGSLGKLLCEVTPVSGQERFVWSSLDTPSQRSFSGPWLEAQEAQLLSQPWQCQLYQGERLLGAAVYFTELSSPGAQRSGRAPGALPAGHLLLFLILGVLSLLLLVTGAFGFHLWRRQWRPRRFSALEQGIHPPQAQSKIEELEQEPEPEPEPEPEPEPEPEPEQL
Procedure: 5) The prepared antibody samples were added to the 96-well plate according to the platemap, the cells were resuspended and incubate at 4° C. for 1 hour.
7) 3% BSA/1xPBS was used to dilute Goat polyclonal Secondary Antibody to Human IgG-Fc (DyLight® 650) to the desired concentration (1:200), in which the cells were resuspended and incubated at 4° C. for 1 hour.
9) The cells were resuspended in 200 µl of 3% BSA/1xPBS, and performed flow cytometric testing by Shsti Biotech Inc.

[3] = target: T2, human LAG3 expressed on cells; assay: cell ELISA, 293T-hLAG3 cells
Procedure: Each well was treated with stimulants. The cells were then fixed and blocked with Blocking buffer. The Primary antibodies were added. The wells were washed and a HRP-conjugated secondary antibody was added. The wells were washed with 1x PBS and a solution containing TMB (Biopanda, TMB-S-004) was added. The TMB reacted with HRP to change the color thereof from colorless to blue. An acid stop solution (Solarbio, C1058) was then added to stop the reaction and change the blue color to yellow.
Materials are listed below: [0072] […] 2) Blocking buffer: 1×PBS+3% BSA (Sigma, B2064); [0074] […] [0075] 4) Secondary antibody: Goat anti-human IgG1 Fc antibody, HRP (1:2500, invitrogen, A18817). [0076]

[4] = target: T2, human LAG3 expressed on cells; assay: cell-based or functional assay

Row | Binder | EC50 [3] [nM] | OD450 at 0.0045725 ug/ml [3] | OD450 at 0.0137174 ug/ml [3] | OD450 at 0.0411523 ug/ml [3] | OD450 at 0.1234568 ug/ml [3] | OD450 at 0.3703704 ug/ml [3] | OD450 at 1.111111 ug/ml [3] | OD450 at 3.333333 ug/ml [3] | OD450 at 10 ug/ml [3] | IL-2, % of BMS, at 0.005080526 ug/mL [4] [%] | IL-2, % of BMS, at 0.015241579 ug/mL [4] [%] | IL-2, % of BMS, at 0.045724737 ug/mL [4] [%] | IL-2, % of BMS, at 0.137174211 ug/mL [4] [%] | IL-2, % of BMS, at 0.411522634 ug/mL [4] [%] | IL-2, % of BMS, at 1.234567901 ug/mL [4] [%] | IL-2, % of BMS, at 3.703703704 ug/mL [4] [%] | IL-2, % of BMS, at 11.11111111 ug/mL [4] [%] | IL-2, % of BMS, at 33.33333333 ug/mL [4] [%] | IL-2, % of BMS, at 100 ug/mL [4] [%] | other results
1 | B1 | – | – | – | – | – | – | – | – | – | – | – | – | – | – | – | – | – | – | – | EC50 [1]: 2.08 nM; OD450 at 0.061 nM [1]: 0.038; OD450 at 0.1829 nM [1]: 0.057; OD450 at 0.5487 nM [1]: 0.212; OD450 at 1.6461 nM [1]: 1.15; OD450 at 4.9383 nM [1]: 2.53; OD450 at 14.815 nM [1]: 2.88; OD450 at 44.445 nM [1]: 2.91; OD450 at 133.335 nM [1]: 2.99; EC50 [2]: 1.18 nM; FACS signal at 0.061 nM [2]: 234; FACS signal at 0.1829 nM [2]: 585; FACS signal at 0.5487 nM [2]: 1420; FACS signal at 1.6461 nM [2]: 2810; FACS signal at 4.9383 nM [2]: 3820; FACS signal at 14.815 nM [2]: 4360; FACS signal at 44.445 nM [2]: 4620; FACS signal at 133.335 nM [2]: 4630
2 | B2 | 1.01 | 0.101 | 0.242 | 0.527 | 0.945 | 1.27 | 1.4 | 1.44 | 1.5 | – | – | – | – | – | – | – | – | – | – | –
3 | B3 | 1.07 | 0.105 | 0.238 | 0.458 | 0.9 | 1.25 | 1.35 | 1.28 | 1.4 | – | – | – | – | – | – | – | – | – | – | –
4 | B4 | 1.01 | 0.096 | 0.208 | 0.43 | 0.818 | 1.11 | 1.21 | 1.13 | 1.28 | – | – | – | – | – | – | – | – | – | – | –
5 | B5 | 0.758 | 0.092 | 0.232 | 0.432 | 0.745 | 0.962 | 0.979 | 0.905 | 1.18 | – | – | – | – | – | – | – | – | – | – | –
6 | B6 | – | – | – | – | – | – | – | – | – | – | – | – | – | – | – | – | – | – | – | EC50 [1]: 2 nM; OD450 at 0.061 nM [1]: 0.038; OD450 at 0.1829 nM [1]: 0.057; OD450 at 0.5487 nM [1]: 0.132; OD450 at 1.6461 nM [1]: 0.648; OD450 at 4.9383 nM [1]: 1.25; OD450 at 14.815 nM [1]: 1.41; OD450 at 44.445 nM [1]: 1.33; OD450 at 133.335 nM [1]: 1.66; EC50 [2]: 0.6 nM; FACS signal at 0.061 nM [2]: 191; FACS signal at 0.1829 nM [2]: 487; FACS signal at 0.5487 nM [2]: 1110; FACS signal at 1.6461 nM [2]: 1690; FACS signal at 4.9383 nM [2]: 2030; FACS signal at 14.815 nM [2]: 2210; FACS signal at 44.445 nM [2]: 2480; FACS signal at 133.335 nM [2]: 2380
7 | B7 | – | – | – | – | – | – | – | – | – | 0 | 1.97 | 13.2 | 14.6 | 32.6 | 45.4 | 52.9 | 52.5 | 65 | 66.5 | –
8 | B8 | – | – | – | – | – | – | – | – | – | 0 | 4.21 | -1.96 | 10.8 | 39 | 51.2 | 62.3 | 69.3 | 79.8 | 83 | –
9 | B9 | – | – | – | – | – | – | – | – | – | 0.0473 | 0.883 | -2.03 | 0.439 | 3.96 | 18.9 | 43.6 | 52.5 | 50.7 | 62.2 | –
